The record followed here is PMC6699925.

The assay concerns the target phospholamban (PLN), mouse (mouse (endogenous in mouse heart)) (UniProt P61014). The assay is described as follows: co-IP.
UniProt P61014, sequence (P61014 whole entry): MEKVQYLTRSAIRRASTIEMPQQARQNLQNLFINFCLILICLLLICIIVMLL

On to “protein phosphatase 1 catalytic subunit (PP1c), mouse (from UniProt P62137 1-330) (enzyme)”, for which the reduction of PP1c bound to PLN in Ppp1r3a-KO against WT hearts worked out at 58%.
